# Source: patent US20260167721A1 (ABLEXIS, published 2026)
# B1: CD3 × CD33-BspAb38 (bispecific antibody)
# chain 1: not shown
# chain 2: EVQLVQSGAEVKKPGSSVKVSCKASGYTITDSNIHWVRQAPGQSLEWIGYIYPYNGGTDYNQKFKNRATLTVDNPTNTAYMELSSLRSEDTAFYYCVNGNPWLAYWGQGTLVTVSSASTKGPSVFPLAPSSKSTSGGTAALGCLVKDYFPEPVTVSWNSGALTSGVHTFPAVLQSSGLYSLSSVVTVPSSSLGTQTYICNVNHKPSNTKVDKRVEPKSCDKTHTCPPCPAPEFEGGPSVFLFPPKPKDTLMISRTPEVTCVVVDVSHEDPEVKFNWYVDGVEVHNAKTKPREEQYNSTYRVVSVLTVLHQDWLNGKEYKCKVSNKALPASIEKTISKAKGQPREPQVCTLPPSREEMTKNQVSLSCAVKGFYPSDIAVEWESNGQPENNYKTTPPVLDSDGSFFLVSKLTVDKSRWQQGNVFSCSVMHEALHNRFTQKSLSLSPGK
# chain 3: DIQLTQSPSTLSASVGDRVTITCRASESLDNYGIRFLTWFQQKPGKAPKLLMYAASNQGSGVPSRFSGSGSGTEFTLTISSLQPDDFATYYCQQTKEVPWSFGQGTKVEVKRTVAAPSVFIFPPSDEQLKSGTASVVCLLNNFYPREAKVQWKVDNALQSGNSQESVTEQDSKDSTYSLSSTLTLSKADYEKHKVYACEVTHQGLSSPVTKSFNRGEC
# B2: CD3 × CD33-BspAb51 (bispecific antibody)
# chain 1: not shown
# chain 2: B1 chain 2
# chain 3: B1 chain 3
# B3: CD3 × CD33-BspAb73 (bispecific antibody)
# chain 1: EVQLVESGGGLVKPGGSLRLSCAASGFTFSSYSMNWVRQAPGKCLEWVSSVNSRGSYIYYADSVKGRFTISRDNAKDSLYLQMNSLRADDTAVYYCARDRRELLLDYWGQGTLVTVSSGGGGSGGGGSGGGGSGGGGSSYELTQPPSVSVSPGQTARITCSGDALPKKYAYWYQQKSGQAPVLVIYEDSKRPSGIPERFSGSSSGTMATLTISGAQVEDEADYYCYSTDSSGNHSWVFGCGTKLTVLDKTHTCPPCPAPEFEGGPSVFLFPPKPKDTLMISRTPEVTCVVVDVSHEDPEVKFNWYVDGVEVHNAKTKPREEQYNSTYRVVSVLTVLHQDWLNGKEYKCKVSNKALPASIEKTISKAKGQPREPQVYTLPPCREEMTKNQVSLWCLVKGFYPSDIAVEWESNGQPENNYKTTPPVLDSDGSFFLYSKLTVDKSRWQQGNVFSCSVMHEALHNHYTQKSLSLSPGK
# chain 2: B1 chain 2
# chain 3: B1 chain 3
# B4: CD3 × CD33-BspAb66 (bispecific antibody, human IgG1, kappa)
# chain: EVQLVESGGGLVQPGRSLRLSCAASGFTFDDYAMHWVRQAPGKGLEWVSGISWNSGSIGYADSVKGRFTISRDNAKNSLYLQMNSLRAEDTALYYCAKDSRGYGDYRLGGAYWGQGTLVTVSSGGGGSGGGGSGGGGSGGGGSEIVMTQSPATLSVSPGERATLSCRASQSVSSNLAWYQQKPGQAPRLLIYGASTRATGIPARFSGSGSGTEFTLTISSLQSEDFAVYYCQQYNNWPWTFGQGTKVEIKTSGPGGPDKTHTCPPCPAPEFEGGPSVFLFPPKPKDTLMISRTPEVTCVVVDVSHEDPEVKFNWYVDGVEVHNAKTKPREEQYNSTYRVVSVLTVLHQDWLNGKEYKCKVSNKALPASIEKTISKAKGQPREPQVYTLPPCREEMTKNQVSLWCLVKGFYPSDIAVEWESNGQPENNYKTTPPVLDSDGSFFLYSKLTVDKSRWQQGNVFSCSVMHEALHNHYTQKSLSLSPGK
# heavy: B1 chain 2
# light: B1 chain 3
# B5: CD3 × CD33-BspAb45 (bispecific antibody)
# chain 1: EVQLVESGGGLVQPGGSLRLSCAASGFTFSRYSMNWVRQAPGKCLEWVSYISSSSSSIYYADSVKGRFTISRDNAKNSLYLQMNSLRDEDTAVYYCARDRRATLDYWGQGTLVTVSSGGGGSGGGGSGGGGSGGGGSNFMLTQPHSVSESPGKTVTISCTRSSGSIASNYVQWYQQRPGSSPTTVIYEDNQRPSGVPDRFSGSIDSSSNSASLTISGLKTEDEADYYCQSYDSSNHVFGCGTKLTVLDKTHTCPPCPAPEFEGGPSVFLFPPKPKDTLMISRTPEVTCVVVDVSHEDPEVKFNWYVDGVEVHNAKTKPREEQYNSTYRVVSVLTVLHQDWLNGKEYKCKVSNKALPASIEKTISKAKGQPREPQVYTLPPCREEMTKNQVSLWCLVKGFYPSDIAVEWESNGQPENNYKTTPPVLDSDGSFFLYSKLTVDKSRWQQGNVFSCSVMHEALHNHYTQKSLSLSPGK
# chain 2: B1 chain 2
# chain 3: B1 chain 3
# B6: CD3 × CD33-BspAb72 (bispecific antibody)
# chain 1: EVQLVESGGGLVQPGGSLRLSCAASGFTFSSYSMNWVRQAPGKCLEWVSYISSSSSTIYYADSVKGRFTISRDNAKNSLYLQMNSLRDEDTAVYYCARDGPVDYGMDVWGQGTTVTVSSGGGGSGGGGSGGGGSGGGGSSYELTQPPSVSVSPGQTARITCSGDALPKQYTYWYQQKPGQAPVLVIYKDSERPSGIPERFSGSSSGTTVTLTISGVQAEDEADYYCQSADSSGTYRVFGCGTKLTVLDKTHTCPPCPAPEFEGGPSVFLFPPKPKDTLMISRTPEVTCVVVDVSHEDPEVKFNWYVDGVEVHNAKTKPREEQYNSTYRVVSVLTVLHQDWLNGKEYKCKVSNKALPASIEKTISKAKGQPREPQVYTLPPCREEMTKNQVSLWCLVKGFYPSDIAVEWESNGQPENNYKTTPPVLDSDGSFFLYSKLTVDKSRWQQGNVFSCSVMHEALHNHYTQKSLSLSPGK
# chain 2: B1 chain 2
# chain 3: B1 chain 3
# B7: CD3 × CD33-BspAb52 (bispecific antibody)
# chain 1: not shown
# chain 2: B1 chain 2
# chain 3: B1 chain 3
# Molecular target: T1, CD3 on human donor PBMC / Pan T effector cells (human, UniProt P07766 23-207; P09693 23-182; P04234 22-171; P20963 22-164)
# T1 sequence (P07766 23-207, chain 1 of 4): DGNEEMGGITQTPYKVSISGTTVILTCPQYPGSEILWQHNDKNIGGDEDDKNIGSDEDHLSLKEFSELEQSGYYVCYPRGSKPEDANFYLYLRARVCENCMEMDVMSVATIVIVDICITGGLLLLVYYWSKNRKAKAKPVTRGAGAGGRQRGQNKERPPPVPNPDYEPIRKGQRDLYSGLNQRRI
# T1 sequence (P09693 23-182, chain 2 of 4): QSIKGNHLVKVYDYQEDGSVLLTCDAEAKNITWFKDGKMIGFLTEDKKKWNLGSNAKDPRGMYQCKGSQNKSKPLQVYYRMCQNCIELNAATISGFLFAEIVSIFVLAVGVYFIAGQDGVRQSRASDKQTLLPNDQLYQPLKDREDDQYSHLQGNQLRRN
# T1 sequence (P04234 22-171, chain 3 of 4): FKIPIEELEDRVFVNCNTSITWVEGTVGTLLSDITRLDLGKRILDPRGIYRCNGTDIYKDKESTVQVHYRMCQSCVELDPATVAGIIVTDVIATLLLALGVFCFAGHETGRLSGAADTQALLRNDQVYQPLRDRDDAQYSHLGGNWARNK
# T1 sequence (P20963 22-164, chain 4 of 4): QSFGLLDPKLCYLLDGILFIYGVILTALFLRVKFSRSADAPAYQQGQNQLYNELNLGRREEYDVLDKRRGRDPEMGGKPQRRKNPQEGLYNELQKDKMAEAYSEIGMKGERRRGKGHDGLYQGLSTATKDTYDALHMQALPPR
# Assay: cell-based or functional assay
Binder,Cytokine Release Assay (IL2) Donor 0 EC50 [nM],Cytokine Release Assay (IL2) Donor 0 gMFI max [gMFI],Cytokine Release Assay (IL2) Donor 1 EC50 [nM],Cytokine Release Assay (IL2) Donor 1 gMFI max [gMFI],Cytokine Release Assay (IL2) Donor 2 EC50 [nM],Cytokine Release Assay (IL2) Donor 2 gMFI max [gMFI],Cytokine Release Assay (IL2) Donor 3 EC50 [nM],Cytokine Release Assay (IL2) Donor 3 gMFI max [gMFI]
B1,6.63,39300,2.87,16200,1.73,19200,1.84,45900
B2,0.181,105000,0.529,37800,0.205,27300,0.0995,156000
B3,0.104,29000,0.373,15900,26.5,32500,0.24,42900
B4,44.9,84700,40.1,31100,38.7,33700,49.8,95000
B5,0.0539,50900,0.0869,22200,0.0204,26200,0.0205,67900
B6,8.21,23000,4.28,17300,2.16,16400,8.36,26300
B7,141,17200,10.7,14500,–,12800,3.87,18100

# Molecular target: T1, CD3 on human donor PBMC / Pan T …
# Assay: cell-based or functional assay
# Remark: another data set of the same source
Binder,Cytokine Release Assay (TNFα) Donor 0 EC50 [nM],Cytokine Release Assay (TNFα) Donor 0 gMFI max [gMFI],Cytokine Release Assay (TNFα) Donor 1 gMFI max [gMFI],Cytokine Release Assay (TNFα) Donor 2 EC50 [nM],Cytokine Release Assay (TNFα) Donor 2 gMFI max [gMFI],Cytokine Release Assay (TNFα) Donor 3 EC50 [nM],Cytokine Release Assay (TNFα) Donor 3 gMFI max [gMFI],Cytokine Release Assay (TNFα) Donor 1 EC50 [nM]
B1,6.01,28500,4840,4.03,10100,5.95,17900,–
B2,0.203,51700,6200,0.18,14800,0.166,36200,0.535
B3,0.759,28000,4400,1.01,14300,0.653,24200,–
B4,20.1,55800,5360,28.1,14000,10.8,28600,–
B5,0.0919,71300,4850,0.0334,12100,0.0216,31800,–
B6,–,23400,4410,16.9,8010,42.5,11200,–
B7,–,5510,4510,1.35,4800,18.6,5310,–
